From publication doi:10.1101/2024.10.13.617916

Target: KaiB labeled with 6-iodoacetamidofluorescein (KaiB-6IAF) (Synechococcus elongatus) (UniProt Q79PF5)
Assay: other fluorescence titration

Chain of UniProt Q79PF5 (Q79PF5 whole entry): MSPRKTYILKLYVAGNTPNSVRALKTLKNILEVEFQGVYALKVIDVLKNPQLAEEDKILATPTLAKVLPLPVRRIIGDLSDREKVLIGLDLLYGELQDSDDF

decrease of KaiB-6IAF fluorescence intensity at 3.5 uM KaiC: 60%
maximal quenching of KaiB-6IAF: 40%
B1: KaiC (natural protein)
chain: MTSAEMTSPNNNSEHQAIAKMRTMIEGFDDISHGGLPIGRSTLVSGTSGTGKTLFSIQFLYNGIIEFDEPGVFVTFEETPQDIIKNARSFGWDLAKLVDEGKLFILDASPDPEGQEVVGGFDLSALIERINYAIQKYRARRVSIDSVTSVFQQYDASSVVRRELFRLVARLKQIGATTVMTTERIEEYGPIARYGVEEFVSDNVVILRNVLEGERRRRTLEILKLRGTSHMKGEYPFTITDHGINIFPLGAMRLTQRSSNVRVSSGVVRLDEMCGGGFFKDSIILATGATGTGKTLLVSRFVENACANKERAILFAYEESRAQLLRNAYSWGMDFEEMERQNLLKIVCAYPESAGLEDHLQIIKSEINDFKPARIAIDSLSALARGVSNNAFRQFVIGVTGYAKQEEITGLFTNTSDQFMGAHSITDSHISTITDTIILLQYVEIRGEMSRAINVFKMRGSWHDKAIREFMISDKGPDIKDSFRNFERIISGSPTRITVDEKSELSRIVRGVQEKGPES
